According to the supplement of paper PMC10567573:

B1: PPFIA4 (parent)
chain: YAGNLHESGVHGALLALDENFDHN
B2: ANKRD40 (parent)
chain: VCCCELGVNPDQVEKIRKLPNTLL

Variants of: B1
Test: protein stability index of a GFP-peptide fusion (GPS, HEK-293T) (PSI 1-6); higher = more stable
Conditions: c terminus: a fixed tail appended
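Further: lentivirally expressed fusions sorted by FACS into six bins by GFP to DsRed ratio, PSI derived from sequencing read proportions per bin multiplied by bin number.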

Protein stability index: each site, then its substitutions
D18: A 1.66 | T 2.13 | Y 2.14 | C 1.34 | Q 2.65 | W 2 | F 1.69 | H 2.11 | I 2.2 | E 2.82 | L 1.76 | G 1.95 | M 2.38 | S 1.87 | P 2.16 | V 2.07 | R 2.55 | K 2.54 | N 2.74
D22: A 2.56 | H 1.84 | Y 2.49 | T 1.87 | F 2.01 | C 1.65 | G 2.4 | V 1.27 | E 2.48 | Q 2.2 | S 2.02 | P 2.47 | K 2.37 | I 2.11 | R 1.56 | M 2.3 | W 2.41 | L 1.46 | N 1.99
L17: T 3.04 | S 4.03 | W 2.4 | V 2.47 | Y 1.76
H23: V 2.63 | E 2.25 | K 2.53 | Y 2.43 | N 2.63 | T 2.61 | D 2.58 | C 2.13 | F 2.12 | W 2.07 | M 2.19 | L 2.34 | Q 2.22 | S 2.19 | I 2.23 | A 2.18 | P 2.81 | G 2.46 | R 2.47
N20: L 1.63 | R 2.25 | D 2.98 | W 2.27 | S 2.58 | Q 1.86 | Y 2.24 | V 2.42 | K 2.23 | C 2.32 | H 2.48 | I 1.79 | T 2.16 | E 3.07 | F 2.17 | M 2.09 | G 3.1 | P 2.63 | A 2.68
N24: C 2.58 | R 1.9 | P 2.39 | Y 2.47 | K 2.02 | F 2.01 | L 2.28 | W 2.01 | T 2.42 | G 2.13 | I 2.27 | V 1.95 | Q 2.69 | E 3.49 | H 1.9 | S 2.41 | D 2.46 | M 1.92 | A 2.69
F21: Y 2.6 | R 2.53 | V 2.63 | L 3.51 | E 3.93 | K 2.89 | Q 3.08 | W 2.69 | D 3.92 | S 3.56 | H 3 | C 3.23 | P 3.45 | N 3.85 | M 2.85 | T 3.37 | A 2.9 | I 2.69 | G 3.58
E19: C 1.33 | G 2.1 | V 2 | W 3.17 | T 2.68 | A 2.08 | Y 1.61 | H 1.31 | N 2.2 | Q 1.64 | S 1.54 | I 2.97 | L 1.24 | D 2.6 | K 1.5 | M 1.65 | F 1.61 | P 1.6 | R 2.06

Variants of: B2
Test: as above
Conditions: c terminus: a fixed tail appended

Protein stability index, by site and new letter:
C2: P 3.22 | W 1.45 | K 2.63 | H 2.65 | G 2.73
D11: S 1.9 | G 2.17 | Q 1.63 | P 1.24 | C 2.01 | N 1.42
V8: K 2.2 | Q 1.85 | N 1.99 | S 2.4 | R 1.81 | L 1.34 | P 1.79
N9: A 1.47 | C 1.66 | R 1.92 | S 2.3 | H 1.83 | L 1.97
E5: H 2.82 | P 2.17 | V 1.18 | M 1.32 | A 1.84 | C 1.1 | K 2.22 | N 1.97 | R 1.47 | D 1.89 | Q 1.71 | F 3.32
T22: D 2.5 | N 1.71 | E 2.64 | V 1.33 | R 2.02 | S 1.79 | K 2.1 | P 2.21 | Y 1.63 | L 2.73 | M 2.1
R17: F 1.92 | M 1.9 | L 1.78 | V 1.82 | S 1.94 | G 1.45
G7: R 1.78 | W 1.51 | L 2.3 | I 2.45 | N 1.43 | K 2.42 | A 2.02 | D 1.96
L19: T 2.33 | H 1.79 | Y 1.76 | I 2.25 | R 2.5 | N 2.23 | E 2.73
L6: N 2.47 | W 1.66 | C 2.06 | K 3.1 | A 2 | F 1.4 | D 3.28 | Q 3.27 | Y 1.87
L24: I 1.95 | A 1.71 | Q 2.48 | R 1.38 | H 2.02 | P 2.12 | S 2.49 | C 2.12
P10: I 1.8 | H 2 | M 1.55 | R 2.35 | N 2 | T 1.98 | Q 2.02 | K 2.02 | G 2.17 | F 2.23 | D 2.2 | V 2.01
K15: W 2.53 | V 2.12 | I 1.39 | L 2.34 | T 1.66 | E 2.81 | D 2.17 | S 2.34 | A 1.68 | Y 2.09
C3: R 2.1 | L 2.03 | H 2.18 | T 2.38 | D 2.31 | K 2.23 | Q 1.96 | V 2.53 | F 1.24 | W 1.81
C4: T 2.76 | M 2.16 | N 2.41 | G 2.12 | A 1.87 | L 1.73 | R 2.43
K18: T 1.89 | W 1.75 | S 2.08 | C 1.75 | L 1.72 | R 2.18 | A 1.26 | G 1.53 | N 1.64 | V 2.15 | H 2.95 | Q 1.54 | F 2.53
V13: N 2.38 | T 1.76 | G 2.5 | P 2.18 | H 1.77 | E 2.78 | M 1.67 | R 2.27
N21: G 1.45 | W 1.32 | Y 2.47 | T 2.04 | Q 1.74 | L 1.94 | I 2.15 | D 2.43 | E 2.02
I16: E 3.09 | Y 1.51 | R 2.12 | S 2.08 | M 1.67
E14: T 1.68 | R 1.05 | M 1.53 | G 1.89 | P 2.95 | Y 2.09 | D 1.66 | L 2.13 | V 1.45 | H 2.08 | K 1.48
V1: S 2.4 | D 3.1 | A 1.66 | L 2.04 | Y 1.85 | F 1.5 | W 1.79
P20: D 1.48 | S 1.95 | E 1.4
Q12: S 2.3 | H 1.42 | I 2.38 | V 2.24
L23: I 1.6 | D 2.31 | H 2.67 | W 2.9 | Q 2.35 | A 1.98 | F 1.51 | N 2.05 | G 2.51 | K 2.36 | T 2.33 | P 2.75
